Measurements published in patent publication US20180334496A1 (KODIAK SCIENCES, published 2018).

Target: T1, human Complement Factor D (CFD), purified from human serum (human, UniProt P00746 26-253)
T1 construct: serum purified (CompTech A136); also called serum purified CFD; hCFD-Comptech
Experiment: SPR MX96, mAbs amine-coupled, CFD injected

T1 sequence (P00746 26-253): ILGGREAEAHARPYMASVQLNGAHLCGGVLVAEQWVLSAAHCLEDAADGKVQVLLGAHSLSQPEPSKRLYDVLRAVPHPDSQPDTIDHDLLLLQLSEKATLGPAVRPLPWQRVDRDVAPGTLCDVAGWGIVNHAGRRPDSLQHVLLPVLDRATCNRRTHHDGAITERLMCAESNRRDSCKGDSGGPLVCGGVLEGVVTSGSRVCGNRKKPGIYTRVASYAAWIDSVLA

Binder	Kd
KCD110 (antibody, V domains shown) VH: EVQLQQSGPELVKPGASVKISCKASGYSFTGYYMHWVKQSHGNILDWIGYIDPDNGVSSKNQKFTGKATVTADKSSSTAYMELRSLTSEDSAVYYCAGYYGSSWYWYFDVWGTGTTVTVSS VL: QIVLSQSPAILSASPGEKVTMTCRASSSVSYMHWYQQKPGSSPKPWIYATSNLASGVPARFSGSGSGTSYSLTISRVEAEDAATYYCQQWSSNPYTFGGGTKLEIK	3.71 nM
KCD047 (antibody, V domains shown) VH: EVQLQQSGAEFVKPGASVRLSCTASGFNIKDTYMHWVKQRPEQGLEWIGRIDPANGYTKDDPKFQGKATITADTSSNTAYLQLSSLTSEDTAVYYCASAMDYWGQGTSVTVSS VL: QIVLTQSPAVMSASPGEKVAMTCSASSSVTYMYWYQQKPGSSPRLLIYDTSNLASGVPVRFSGSGSGTSYSLTISRMEAEDAATYYCQQWSTYPFPFGSGTKLEIK	4.37 nM
KCD136 (antibody, V domains shown) VH: EVQLQQSVAELVRPGASVKLSCSASGFNIKNTYMHWVNQRPEQGLEWIGRIDPANGITKYAPNFQGKATITADTSSNTAYLQLSNLTSEDTAIYYCTRAMDYWGQGTSVTVSS VL: QIVLTQSPAIMSASPGEKVTMTCSASSSVSYMYWYQQKPGSSPRLLIYDISNLASGVPVRFSGSGSGTSYSLTISRMEAEDAATYYCQQWDTYPWTFGGGTKLEIK	4.46 nM
KCD018 (antibody, V domains shown) VH: QVQLQQSAAELARPGASVKMSCKASGYTFTSYTVHWVKQRPGQGLEWIGYINPSSGFTDYNQKFKDKTTLTADISSSTAYIQLSSLTSEDSAVYYCARRGVNWSWFAYWGQGTLVTVSA VL: NIMMTQSPSSLAVSAGEKVTMSCKSSQSVLYSSNQKNYLAWYQQKPGQSPQLLIYWASTRESGVPERFTGSGSGTDFTLTISSVQAEDLAVYYCHQYLSSWTFGGGTKLEIK	40.8 nM
KCD004 (antibody, V domains shown, also called OG2063) VH: EVQLQQSGAELVRPGSSVKMSCKTSGKTFTSHGINWVKQRPGQGLEWIGYIYIGNGYNEYNEKFKGKATLTSDTSSSTAYMQLSSLTFEDSAIYFCVRKAYGNYGFDDWGQGTTLTVSS VL: DIQMTQSPTSLSASLGESVSLTCRASQEISGYLNWLQQKPDGSIKRLIYAASTLDSGVPKRFSGSRSGSDYSLTISSLESEDFADYYCLQYANYPFTFGSGTKLEVK	0.353 nM
KCD205 (antibody, V domains shown) VH: EVQLQQSGAELVRPGSSVKMSCKTSGNTFTSHGINWVKQRPGQGLEWIGYIYIGNGYNEYNEKFKGKATLTSDTSSSTAYMQLSSLTSEDSAIYFCVRKAYGNYGFDDWGQGTTLTVSS VL: DIQMTQSPSSLSASLGERVSLTCRASQEISGYLSWLQQKPDGTIKRLIYAASTLDSGVPKRFSGSSSGSDYSLTISSLESDDFADYYCLQYASYPFTFGSGTKLEIK	2.98 nM
KCD125 (antibody, V domains shown) VH: EVQLQQSGAELVRPGSSVKMSCKTSGNTFTSYGINWVKQRPGQGLEWIGYIYIGTGYTEYNEKFKGKATLTSDTSSSTAYMQLSSLTSEDSAIYFCVRKAYGNYGFDYWGQGTTLTVSS VL: DIQMTQSPSSLSASLGERVSLTCRASQEISGYLSWLQQKPDGTIKRLIYAASTLDSGVPKRFSGSRSGSDYSLTISSLESEDFADYYCLQYASYPFTFGSGTKLEIK	3.75 nM
KCD126 (antibody, V domains shown) VH: EVQLQQSGAELVRPGSSVKMSCKTSGKTFTSHGINWVKQRPGQGLEWIGYIYIGNGYNEYNEKFKGKATLTSDTSSSTAYMQLSSLTFEDSAIYFCVRKAYGNYGFDDWGQGTTLTVSS VL: DIQMTQSPTSLSASLGESVSLTCRASQEISGNLNWLQQKPDGSIKRLIYAASTLDSGVPKRFSGSRSGSDYSLTISSLESEDFADYYCLQYANYPFTFGSGTKLEVK	0.34 nM
KCD224 (antibody, V domains shown) VH: QVQLKESGPGLVAPSQSLSITCTVSGFSLTSYGVDWIRQSPGKGLEWLGVIWGVGSTNYNSALKSRLSISKDNSKSQVFLKMNSLQTDDTAMYYCARSYDGSYWYFDVWGTGTTVTVSS VL: DIQMTQTTSSLSASLGDRVTISCRASQVISNYLNWYQQKPDGTVKLLIYYTSRLHSGVPSRFSGSGSGTDYSLTISNLEPEDIATYYCQQYSKLPYTFGSGTKLEIK	1.17 nM
KCD075 (antibody, V domains shown) VH: QVQLLQPGAELVRPGTSVKLSCKASGYTFSNYWINWVKQRPGQGLEWIGNIYPSDSSINYNQKFKDKATLTVDKSSTTAYMQLSSPTSEDSAVYYCTGTDWYFDVWGAGTTVTVSS VL: DIQMTQTTSSLSASLGDRVTISCSGGQGISNYLNWYQQKPDGTFKLLIYYTSTLHSGVPSRFSGSGSGTDYSLTISNLEPEDVATYYCQQYSKLPYTFGGGTKLEIK	3.75 nM
KCD225 (antibody, V domains shown) VH: QVQLQQSGPELVKPGASVKISCKASGYTFTDYYINWMKQRPGQGLEWIGWIFPGSDSTYYNEKFKGKATLTVDKSSSTAYMLLSSLTSEDSAVYFCARLGYYSHSYYAMDYWGQGTSVTVSS VL: DIQMTQSPASLSVSTGETVTITCRASENIYSNLAWFQQKQGKSPQLLVYAATNLADGVPSRFSGSGSGTQYSLKITSLQSEDFGSYYCQHFWGTPLTFGAGTKLDLK	8.67 nM
KCD210 (antibody, V domains shown) VH: EVQLQQSGPVLVKPGASVTMSCKASGYTFTEYYMNWVKQSHGKSLDWIGVINPYSGGTSYKQKFKDKATLTVDKSSSTAYMELNGLTSEDSAVYFCVRGGLRRNYFDYWGQGTTLTVSS VL: EIVLTQSPALMTASPGEKVTITCSVSSSISSTNLHWYQQKSGTSPKPWIFGTSNLASGVPVRFSGSGSGTSYSLTISNMEAEDAATYYCQQWNSYPFTFGTGTKLEIK	3.52 nM
KCD030 (antibody, V domains shown) VH: QVQLQQSGAELAKPGASVKMSCKASGYTFTNYWMHWVKQRPGQGLEWIGYINPSIGYTEYNQKFKDKATLTADKSSSTAYMQLSSLTSEDSAVFYCATFIYYAMDYWGQGTSVTVSS VL: DIQMNQSPSSLSASLGDTITITCHASQNINVWLSWYQQKPGNIPKLLIYKASNLHTGVPSRFSGSGSGTGFTLTISSLQPEDIATYYCQQGQSYPYTFGGGTKLEIK	4.17 nM
KCD135 (antibody, V domains shown) VH: EVQLQQSGPELVKPGASVRMSCKASGYIFTDYSIHWVKQSHGKSLEWIGYINPNNGGTSYNQKFKGKATLTVNKSSTTAYMELRSLTSEDSAVYFCARDTTIVGDYWGQGTTLTVSS VL: DIVMTQSQKFMSTSVGDRVSVTCKASQHVGTNVVWYQQKPGQSPKALIYSASYRYSGVPDRFSGSGSGTDFTLTISNVQSEDLAEYFCQQFNSYPLTFGGGTKLEIK	21.2 nM
KCD114 (antibody, V domains shown) VH: EVQLQQSGPELVKPGASVKISCKASGYSFTAYYMNWVKQSPEKSLEWIGDINPSTGGTTYNQNFKAKATLTVDKSSSTAYMHLKSLTSEDSAVYYCATTYYSGNSYVGFAYWGQGTLVTVSA VL: DIVMTQSHKFMSTSVGDRVSITCKASQDVSTAVAWYQQKPGQSPKLLIFWASTRHTGVPDRFTGSGSGTDYTLTISSVQAEDLALYYCQQHYSTPWTFGGGTKLEIK	8.06 nM
KCD066 (antibody, V domains shown) VH: QVQLQQSAAELARPGASVKMSCKASGYTFTDYTMHWVKQRPGQGLEWIGYINPSGGYTDYNQKFKDKTALTADKSSSTAYMQLSSLTSEDSAVYYCARRRDYWFAYWGQGTLVTVSA VL: DIVMSQSPSSLAVSVGEKVTMSCKSSQSLLYSGNQKNYLAWYQQKPGQSPKLLIYWASTRESGVPDRFTGSGSGTDFTLTISSVKAEDLAVYYCHQYYSYLTFGAGTKLELK	2.88 nM
KCD139 (antibody, V domains shown) VH: EVQLQQSGAELVRPGSSVKMSCKTSGYTFTSYGINWVKQRPGQGLEWIGYIYIANGYTENNEKFKGKAKLTSDISSSTAYMQLSSLTSEDSAIYFCARRFDYAGALDYWGQGTSVTVSS VL: DIVLTQSPASLAVSLGQRATISCRASESVDSYGNSFMHWYQQKPGQPPKLLIHRASNLESGIPARFSGSGSRTDFTLTINPVEADDVAIYYCQQTNDDPYTFGGGTNLEIK	5.28 nM
KCD212 (antibody, V domains shown) VH: EVHLVESGGDLVKPGGSLKLSCAASGFTFSRYGMSWVRQTPDKRLEWVATISSAGSYTYYPDSVKGRFTISRDNAKNTLFLQMSSLKSEDTAMYYCARPLNYYGTSSFDYWGQGTTLTVSS VL: QIVLTQSPAIMSASPGEKVTMTCRASSSVSSTYLHWYQQKPGSSPKLWIYSTSNLASGVPPRFSGSGSGTSYSLTISSVEAEDAATYYCQQYDSSPNTFGAGTKLELK	0.469 nM
KCD065 (antibody, V domains shown) VH: QVQLQQSGAELARPGASVKMSCKASGYTFTTYTIHWVKQRPGQGLEWIGYINPSSDFTNYNQNFADKATLTADRSSSTAYMQLSSLTSEESAVYYCAIRLGYDRQGWYFDVWGAGTTVTVSS VL: DIVMTQSHKFLSTSLGDRVSITCKASQDVGSAVAWYQQKPGQSPDLLIYWTFTRHTGVPDRFTGSRSGTDFTLTISNVQSGDLADYFCQQYSNYPLTFGGGTKLEIK	3.28 nM
KCD131 (antibody, V domains shown) VH: QVQLQQSGPELVKPGASVKISCKASAYTFTDYYINWVKQRPGQGPEWIGWIFPGSNSTYSNEKFEVKATLTVDESSSTAYMLLSSLTSEDSAVYFCARLGYFGSSYHALDYWGQGTSVTVSS VL: DIQMTQSPASLSVSVGETVTITCRASENIYSHLAWFQQKQGKSPRLLVYSATNLPDGVPSRFSGSGSGTQYSLKINILQSEDFGSYYCQHFWGTPWTFGGGTKLEIK	0.14 nM
KCD219 (antibody, V domains shown) VH: QVQLQQSGPELVKPGASVKISCKASGYTFTDYYINWVKQRPGQGLEWIGWIFPGSGSTYYNEKFKGKATLTVDKSSSTAYMLLSSLPSEDSAVYFCARYGYYGSSFYAMDYWGQGTSVTVSS VL: DIQMTQSPASLSVSVGETVTITCRASENIYSNLAWYQQKQGKSPQLLVYAATNLADGVPSRFSGSGSGTQYSLKINSLQSEDFGSYYCQHFWGSPPTFGGGTKLEIK	4.3 nM
